Results on 5 molecules are retold here after patent US20230055566A1.

As a reminder, the EC50 is the midpoint of the concentration-response curve. Higher therefore signals a need for much substance. A word on the EC50 (read off the curve): it is the concentration at which the effect is half-maximal. What is called Kd is a measure of binding affinity in units of concentration. What is called koff is the rate constant with which the complex falls apart. As a reminder, the kon is the rate constant with which the complex forms.

Test [1] has as its target endogenous FGFR2b on the cell membrane of human gastric cancer cells (KATOIII, SNU16) (human) (UniProt P21802). The test is described as follows: flow cytometry on FGFR2b expressing KATOIII cells.
The target of test [2] is recombinant human FGFR2b-Fc (murine Fc) (human) (UniProt P21802). The test is described as follows: ELISA, plate coated with human FGFR2b-Fc, anti-human IgG HRP. On the technique in general: In an ELISA, binding on a coated surface is turned into a signal by an enzyme label.
Test [3] has as its target human FGFR2b (beta)-Fc (human) (UniProt P21802). The test is described as follows: SPR (Biacore), hFGFR2b-Fc immobilized on CM5 chip, antibody injected at 0-200 nM.
Test [4] addresses human FGFR2b on engineered Ba/F3 cells (Ba/F3-FGFR2b) (human), P21802. The test is described as follows: cell-based or functional assay.
For test [5], the target named is human FGFR2b (beta)-Fc (human) (UniProt P21802). The test is described as follows: ELISA, plate coated with HuFGFR2b.
The target of test [6] is recombinant human FGFR1b-Fc (human) (UniProt P11362). The test is described as follows: SPR (Biacore T200), hFGFR1b-Fc amine-coupled on CM5 chip, antibody as analyte. (SPR reads the build-up and loss of mass on a sensor chip optically.)
Test [7] shares this target. The test is described as follows: SPR (Biacore), hFGFR1b-Fc immobilized on CM5 chip, antibody injected at 0-200 nM.

Sequence of recombinant human FGFR1b-Fc (human) (P11362 other isoform, or with tags, fused parts or gaps): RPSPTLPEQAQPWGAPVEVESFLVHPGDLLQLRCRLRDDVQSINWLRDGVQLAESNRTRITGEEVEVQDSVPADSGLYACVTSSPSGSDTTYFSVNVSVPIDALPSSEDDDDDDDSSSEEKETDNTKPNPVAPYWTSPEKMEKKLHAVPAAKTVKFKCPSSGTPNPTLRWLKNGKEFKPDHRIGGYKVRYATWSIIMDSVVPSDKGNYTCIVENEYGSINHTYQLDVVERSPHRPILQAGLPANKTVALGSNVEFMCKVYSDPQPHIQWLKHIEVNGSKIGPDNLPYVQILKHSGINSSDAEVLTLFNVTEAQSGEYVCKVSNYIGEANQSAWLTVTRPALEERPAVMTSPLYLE
Sequence of human FGFR2b on engineered Ba/F3 cells (Ba/F3-FGFR2b) (human), P21802 (P21802 22-821, change not shown): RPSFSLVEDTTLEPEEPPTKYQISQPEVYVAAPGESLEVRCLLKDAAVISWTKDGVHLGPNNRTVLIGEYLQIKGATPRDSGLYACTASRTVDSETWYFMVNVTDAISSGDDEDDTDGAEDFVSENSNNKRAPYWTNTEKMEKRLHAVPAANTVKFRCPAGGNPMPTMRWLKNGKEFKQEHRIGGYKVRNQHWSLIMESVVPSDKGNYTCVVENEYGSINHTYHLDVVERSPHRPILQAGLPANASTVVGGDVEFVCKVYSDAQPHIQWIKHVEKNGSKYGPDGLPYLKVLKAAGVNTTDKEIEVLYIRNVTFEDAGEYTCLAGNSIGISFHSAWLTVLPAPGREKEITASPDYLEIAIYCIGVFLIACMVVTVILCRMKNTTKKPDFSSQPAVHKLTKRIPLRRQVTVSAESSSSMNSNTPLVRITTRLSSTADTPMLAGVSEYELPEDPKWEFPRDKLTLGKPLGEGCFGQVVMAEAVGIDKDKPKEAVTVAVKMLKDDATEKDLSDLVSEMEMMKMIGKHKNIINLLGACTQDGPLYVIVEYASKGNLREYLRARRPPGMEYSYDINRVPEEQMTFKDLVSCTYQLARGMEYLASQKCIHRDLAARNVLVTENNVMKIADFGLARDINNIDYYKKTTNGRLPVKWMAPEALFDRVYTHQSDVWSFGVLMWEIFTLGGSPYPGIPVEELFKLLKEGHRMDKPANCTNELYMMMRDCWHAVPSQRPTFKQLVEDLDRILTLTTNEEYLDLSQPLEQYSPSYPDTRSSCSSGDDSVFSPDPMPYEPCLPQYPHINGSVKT

B1: Ab 21c (antibody, V domains shown)
VH: EVQLHQSGTVLARPGASVKMSCKTSGYTFTNYWMHWIKQRPGQGLEWIGAIYPENGDINYNQKFKGKAKLTAVTSASTAYMDLSSLTNEDSAVYYCTSRGDYWGQGTTLTVSS
VL: QIVLTQSPAIMSASPGEKVTMTCSASSGLSYMSWYQQKPGSSPRLLIYDTSNLASGVPVRFSGSGSGTSYSLTISRMEAEDAATYYCQQWSSYPYTFGGGTKLEIK
Molecule B1 gave an EC50 in test [1] of 8 nM. For the same molecule, the EC50 (read off the curve) in test [2] was 0.4 nM. In test [3], this molecule displayed a Kd of 0.269 nM, a koff of 2.46e-05 s⁻¹ and a kon of 91300 M⁻¹ s⁻¹. This molecule showed a GI50, inhibition of FGF7-induced BaF3 cell proliferation (MTS, 72 hours) in test [4] of 10 nM.

B2: Ab 21 (antibody, V domains shown)
VH: EVQLHQSGTVLARPGASVKMSCKTSGYTFTNYWMHWIKQRPGQGLEWIGAIYPENGDINYNQKFKGKAKLTAVTSASTAYMDLSSLTNEDSAVYYCTSRGDYWGQGTTLTVSS
VL: QIVLTQSPAIMSASPGEKVTMTCSASSGLSYMSWYQQKPGSSPRLLIYDTSNLASGVPVRFSGSGSGTSYSLTISRMEAEDAATYYCQQWSSYPYTFGGGTKLEIK
In test [5], B2 had an EC50 (read off the curve) of 0.4 nM.

B3: Ab hu21-26 (antibody, human IgG1, V domains shown)
VH: EVQLVQSGAEVKKPGASVKVSCKASGYTFTNYWMHWVRQAPGQGLEWMGAIYPENRDINYNQKFKGRVTLTRDTSISTAYMELSRLRSDDTAVYYCTSRGDYWGQGTTVTVSS
VL: AIQLTQSPSSLSASVGDRVTITCSASSGLSYMSWYQQKPGKAPKLLIYDTSNLASGVPSRFSGSGSGTDFTLTISSLQPEDFATYYCQQWSSYPYTFGQGTKLEIK
For B3, in test [3], the Kd was found to be 0.482 nM, the dissociation rate constant (koff) was found to be 5.58e-05 s⁻¹ and the kon is 116000 M⁻¹ s⁻¹.

B4: Ab hu21-21 (antibody, V domains shown)
VH: EVQLVQSGAEVKKPGASVKVSCKASGYTFTNYWMHWVRQAPGQGLEWMGAIYPENGDINYNQKFKGRVTLTRDTSISTAYMELSRLRSDDTAVYYCTSRGDYWGQGTTVTVSS
VL: AIQLTQSPSSLSASVGDRVTITCSASSGLSYMSWYQQKPGKAPKLLIYDTSNLASGVPSRFSGSGSGTDFTLTISSLQPEDFATYYCQQWSSYPYTFGQGTKLEIK
On to B4, for which, in test [3], the Kd worked out at 0.25 nM, the koff is 2.45e-05 s⁻¹ and the association rate constant (kon) was found to be 98000 M⁻¹ s⁻¹.

B5: FPA144 (antibody, INN chains, looked up, V domains shown)
VH: QVQLVQSGAEVKKPGSSVKVSCKASGYIFTTYNVHWVRQAPGQGLEWIGSIYPDNGDTSYNQNFKGRATITADKSTSTAYMELSSLRSEDTAVYYCARGDFAYWGQGTLVTVSS
VL: DIQMTQSPSSLSASVGDRVTITCKASQGVSNDVAWYQQKPGKAPKLLIYSASYRYTGVPSRFSGSGSGTDFTFTISSLQPEDIATYYCQQHSTTPYTFGQGTKLEIK
For the molecule B5, in test [6], the Kd was found to be 225 nM. Also, in test [7], the off-rate (koff) stood at 0.00746 s⁻¹ and the kon was found to be 33200 M⁻¹ s⁻¹.
